Results on seven molecules are retold here after patent publication US20240002331A1 (TIDAL THERAPEUTICS, published 2024).

For assay [1], the target named is mouse CD8 on primary murine T-cells (murine) (UniProt P01731). Briefly: in vivo, DiI-labelled targeted LNPs injected i.v. in BALB/c mice, flow cytometry of blood 24 hours after injection; untargeted LNPs <2%.
For assay [2], the target named is mouse CD4 on primary murine T-cells (murine) (UniProt P06332). Kind of assay: in vivo, DiI-labelled targeted LNPs injected i.v. in BALB/c mice, flow cytometry of blood 24 hours after injection; untargeted LNPs ˜2%. A general note: In flow cytometry, cells or beads pass a laser one at a time.
Assay [3] addresses T1, CD20 on Raji (B-cell) cells (UniProt P11836 1-297, limits assumed).
T1 sequence (looked up): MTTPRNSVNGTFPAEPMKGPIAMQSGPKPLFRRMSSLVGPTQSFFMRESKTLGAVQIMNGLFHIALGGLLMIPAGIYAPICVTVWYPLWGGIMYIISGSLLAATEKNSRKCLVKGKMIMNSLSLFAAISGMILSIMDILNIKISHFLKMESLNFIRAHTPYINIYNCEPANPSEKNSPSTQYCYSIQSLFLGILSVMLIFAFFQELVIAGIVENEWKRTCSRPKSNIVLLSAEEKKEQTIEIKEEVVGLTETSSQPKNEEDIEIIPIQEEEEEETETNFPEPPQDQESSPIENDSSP
Kind of assay: cell-based or functional assay.

Assay [4] has as its target T2, human CD8 on primary human cells (CD8 T-cells, NK-cells) (human, UniProt P01732 22-235).
T2 construct: whole, on cells; also called CD8 receptor
Briefly: DiI-labelled LNP with inserted Fab conjugate, human whole blood, 24 h, flow cytometry (% DiI+ and DiI MFI) on CD4 and CD8 T-cells.

The target of assay [5] is T3, human CD7 on primary human T-cells (human, UniProt P09564 26-240).
T3 construct: whole, on cells
T3 sequence (looked up): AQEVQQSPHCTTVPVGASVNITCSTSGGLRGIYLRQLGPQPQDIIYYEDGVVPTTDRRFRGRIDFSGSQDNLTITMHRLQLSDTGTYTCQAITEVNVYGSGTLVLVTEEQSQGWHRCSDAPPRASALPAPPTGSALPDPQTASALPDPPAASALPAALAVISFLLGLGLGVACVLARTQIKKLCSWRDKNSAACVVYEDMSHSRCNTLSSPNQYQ
Briefly: DiI-labelled LNP with inserted Nb conjugate on primary human CD3+ T cells, flow cytometry.

Assay [6] has as its target T4, human CD2 on primary human T-cells (human, UniProt P06729 25-351).
T4 construct: whole, on cells
T4 sequence (looked up): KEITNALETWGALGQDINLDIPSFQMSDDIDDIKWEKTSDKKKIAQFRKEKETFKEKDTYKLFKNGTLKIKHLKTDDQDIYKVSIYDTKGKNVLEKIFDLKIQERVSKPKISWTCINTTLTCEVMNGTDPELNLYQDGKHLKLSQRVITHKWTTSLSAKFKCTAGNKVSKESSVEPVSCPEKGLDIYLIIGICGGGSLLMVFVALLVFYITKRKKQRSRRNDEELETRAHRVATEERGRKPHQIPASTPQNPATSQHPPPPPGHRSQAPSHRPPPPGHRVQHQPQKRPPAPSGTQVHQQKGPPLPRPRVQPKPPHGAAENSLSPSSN
Kind of assay: DiI-labelled LNP with inserted Fab conjugate on primary human CD3+ T cells, flow cytometry.

T2 sequence (P01732 22-235): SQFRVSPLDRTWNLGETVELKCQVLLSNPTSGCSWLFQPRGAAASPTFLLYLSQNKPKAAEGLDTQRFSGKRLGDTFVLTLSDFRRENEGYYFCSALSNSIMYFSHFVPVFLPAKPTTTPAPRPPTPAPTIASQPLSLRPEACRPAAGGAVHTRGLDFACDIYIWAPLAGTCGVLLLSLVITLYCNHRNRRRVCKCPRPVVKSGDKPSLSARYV
Sequence of mouse CD4 on primary murine T-cells (murine) (P06332 27-457): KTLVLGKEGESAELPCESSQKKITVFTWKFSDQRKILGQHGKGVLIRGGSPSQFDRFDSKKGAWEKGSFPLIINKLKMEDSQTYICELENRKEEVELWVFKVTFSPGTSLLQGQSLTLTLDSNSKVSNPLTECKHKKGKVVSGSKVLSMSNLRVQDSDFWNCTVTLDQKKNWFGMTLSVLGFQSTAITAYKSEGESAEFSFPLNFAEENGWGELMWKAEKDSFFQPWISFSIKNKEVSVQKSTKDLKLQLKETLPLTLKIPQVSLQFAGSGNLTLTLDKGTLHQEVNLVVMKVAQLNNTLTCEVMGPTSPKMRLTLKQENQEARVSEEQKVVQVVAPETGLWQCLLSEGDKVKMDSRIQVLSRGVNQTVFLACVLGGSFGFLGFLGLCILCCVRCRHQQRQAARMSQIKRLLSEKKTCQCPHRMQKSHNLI
Sequence of mouse CD8 on primary murine T-cells (murine) (P01731 28-247): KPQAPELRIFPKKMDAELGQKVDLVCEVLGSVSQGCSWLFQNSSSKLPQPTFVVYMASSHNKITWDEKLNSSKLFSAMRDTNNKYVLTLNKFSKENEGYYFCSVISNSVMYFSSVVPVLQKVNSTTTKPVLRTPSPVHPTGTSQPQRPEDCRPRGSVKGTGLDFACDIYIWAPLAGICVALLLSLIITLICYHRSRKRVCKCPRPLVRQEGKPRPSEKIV

In assay [1], “anti-mouse CD8 Fab YTS156.7.7, inserted in LNPs” returned a % of CD3+CD8+ T-cells in the blood with LNP-association (DiI+) of 78%.
In turn, “anti-mouse CD4 Fab GK1.5, inserted in LNPs” yielded a % of the CD3+CD4+ cell population DiI-positive in assay [2] of 67%.

B1: TTR-023 anti-CD20 (Leu-16) CAR (other)
chain: DYKAKEVQLQQSGAELVKPGASVKMSCKASGYTFTSYNMHWVKQTPGQGLEWIGAIYPGNGDTSYNQKFKGKATLTADKSSSTAYMQLSSLTSEDSADYYCARSNYYGSSYWFFDVWGAGTTVTVSSGGGSGGGSGGGGSSDIVLTQSPAILSASPGEKVTMTCRASSSVNYMDWYQKKPGSSPKPWIYATSNLASGVPARFSGSGSGTSYSLTISRVEAEDAATYYCQQWSFNPPTFGGGTKLEIKGGGGSAAAIEVMYPPPYLDNEKSNGTIIHVKGKHLCPSPLFPGPSKPFWVLVVVGGVLACYSLLVTVAFIIFWVRSKRSRLLHSDYMNMTPRRPGPTRKHYQPYAPPRDFAAYRSRVKFSRSAEPPAYQQGQNQLYNELNLGRREEYDVLDKRRGRDPEMGGKPRRKNPQEGLYNELQKDKMAEAYSEIGMKGERRRGKGHDGLYQGLSTATKDTYDALHMQALPPR
With B1, in assay [3], the “% of dead Raji cells in co-culture with CAR-T cells (Lipid 9 or DLin-KC3-DMA LNPs), against mCherry transfected T-cells” value is 4 fold and the “% of dead Raji cells in co-culture with CAR-T cells (Lipid 15 or DLin-KC3-DMA LNPs), against mCherry transfected T-cells” value is 4 fold.

B2: mutOKT8-Fab (non-functional mutated OKT8), DSPE-PEG (2k) lipid conjugate (Fab, V domains shown)
VH: QVQLVQSGAEDKKPGASVKVSCKASGFNIKDTYIHWVRQAPGQGLEWMGRIDPANDNTLYASKFQGRVTITADTSSNTAYMELSSLRSEDTAVYYCGRGAGAYVFDHWGQGTTVTVSS
VL: DIVMTQSPSSLSASVGDRVTITCRTSRSISAALAWYQEKPGKAPKLLIYSGSTLQSGVPSRFSGSGSGTDFTLTISSLQPEDFATYYCQQHNENPLTFGQGTKVEIKR
modifications: DSPE-PEG (2k)-maleimide coupled to the C-terminal cysteine in the heavy chain (conjugated using similar methods as hSP34)
notes: Negative control, inserted in mRNA LNPs; also called muOKT8
Regarding B2, in assay [4], the binding result was “no binding”.

B3: Anti-CD7 V1 Nb, lipid conjugate (VHH)
VHH: DVQLQESGGGLVQAGGSLRLSCAVSGYPYSSYCMGWFRQAPGKEREGVAAIDSDGRTRYADSVKGRFTISQDNAKNTLYLQMNRMKPEDTAMYYCAARFGPMGCVDLSTLSFGHWGQGTQVTVSI
modifications: conjugated to DSPE-3.4K PEG-maleimide (the cysteine is not named in the example)
notes: The entry includes the C-terminal spacer, cysteine and His tag; Inserted in LNPs; also called αCD7
Take B3: in assay [5], the binding result was “binds”.

B4: anti-CD2 9.6 Fab NoDS, lipid conjugate (Fab, V domains shown)
VH: QVQLQQPGAELVRPGSSVKLSCKASGYTFTRYWIHWVKQRPIQGLEWIGNIDPSDSETHYNQKFKDKATLTVDKSSGTAYMQLSSLTSEDSAVYYCATEDLYYAMEYWGQGTSVTVSS
VL: NIMMTQSPSSLAVSAGEKVTMTCKSSQSVLYSSNQKNYLAWYQQKPGQSPKLLIYWASTRESGVPDRFTGSGSGTDFTLTISSVQPEDLAVYYCHQYLSSHTFGGGTKLEIKR
modifications: DSPE-PEG-maleimide coupled to the C-terminal cysteine in the heavy chain (methods of Example 4)
notes: Inserted in LNPs
With B4, the binding result in assay [6] was “binds”.

B5: anti-CD2 TS2/18.1 Fab NoDS, lipid conjugate (Fab, V domains shown)
VH: EVQLVESGGGLVMPGGSLKLSCAASGFAFSSYDMSWVRQTPEKRLEWVAYISGGGFTYYPDTVKGRFTLSRDNAKNTLYLQMSSLKSEDTAMYYCARQGANWELVYWGQGTLVTVSA
VL: DIVMTQSPATLSVTPGDRVFLSCRASQSISDFLHWYQQKSHESPRLLIKYASQSISGIPSRFSGSGSGSDFTLSINSVEPEDVGVYFCQNGHNFPPTFGGGTKLEIKR
modifications: DSPE-PEG-maleimide coupled to the C-terminal cysteine in the heavy chain (methods of Example 4)
notes: Inserted in LNPs
With B5, in assay [6], the binding result was “binds”.
